Reference: the DeepSol protein solubility set

Experiment: soluble on expression in E. coli; label from the status in PepcDB or PDB records
For “MSLKTGRFDQAQADAFAERLLSVLNDAALTLMISIGHRTGLFDVMDKLDFASSEVIAEAAGCNERYVREWLNALVVGGIVDYDAHTKAYQLPAEHASFLTRKSSPQNMAVVAQFIPVLAYVENGIVDAFKHGGGVPYEAYHRFHEVMAEESGQTILSSLTDKILPMVHGLVDKLNQGIQVLDIGCGYGRALILMAKTYPQSQFTGYDLCDETIAHAVHSAKKNKIQNIHFEKMDLSVWDEQEKYDLITSFDVIHDQAKPAQVLSNVFKALKPHGIFLMQDIKTSSDVAGNVHHPLGALIYTISCMHCMTVSLSQNGLGLGAAWGEELAEKMLVEAGFGKIEKHYLEHDIMNTYYVMRKEGHHHHHH”, the “soluble on expression in E. coli” value was “soluble”. With “MSLKVFVTGATGFIGASIARELLKDGCHVRVLARPGSDRRNLDGLDVEVCEGDLCSPESLDRGVKGCEVLYHAAADYRLWTRNPAAMYAANVEGTRHVLDAALRHGVSRVVYTSSVGTLGNPGDGTPGTEATPVTFADMVGDYKKSKFLAEREAETFLARGLPLVIVNPSTPVGPHDVKPTPTGKIIVDFLNRAMPAYLDTGLNIIDVEDCAQGHILAAQHGRIGEKYILGHENLTLRQIFSLLETVTGLAAPKVRLPYLPILAAAYANEALSRITGREPLIPLAGVQMARKFMYFDSSKAVKELGLPQRPAVEALGRAVEWFRANGYVREGHHHHHH” the “soluble on expression in E. coli” value was “soluble”. For “MSLKVLAAMSGGVDSSVAAARMVDAGHEVVGVHMALSTAPGTLRTGSRGCCSKEDAADARRVADVLGIPFYVWDFAEKFKEDVINDFVSSYARGETPNPCVRCNQQIKFAALSARAVALGFDTVATGHYARLSGGRLRRAVDRDKDQSYVLAVLTAQQLRHAAFPIGDTPKRQIRAEAARRGLAVANKPDSHDICFIPSGNTKAFLGERIGVRRGVVVDADGVVLASHDGVHGFTIGQRRGLGIAGPGPNGRPRYVTAIDADTATVHVGDVTDLDVQTLTGRAPVFTAGAAPSGPVDCVVQVRAHGETVSAVAELIGDALFVQLHAPLRGVARGQTLVLYRPDPAGDEVLGSATIAGASGLSTGGNEGHHHHHH”, the “soluble on expression in E. coli” value was “soluble”. In the case of “MSLKVLIKTDLVLGAPKTLRDVYIGIDEGQIKVISKEKPEDYDYAEYVIGGKNRVVAPGFVTTHSFLYLYPFRYRVFSGKANAFQLMSTLTPNDIYYFSLMGAYHLLKTGVTTVVTSGPNLDMIARAISEVGLRPVLAVGVDCPDSKEDWEREFTTLYNRWSSKNENRVILRLCSNEYSKEVFELSQQYDFPVLLERFVSLENISGNPINVIGLGGGARKDLDIIKQKGFHLASTPSYEVSQFPLSQYKPSISLDLSPTFDIRHEVSTSITRLILTPEEALNAMTIWGLLQLKYNDRGVLENGKVADLVIFEVKEPPTFPLDYESPYESIVFNLSTPETVLVSGEAILDGGVPLNIGIKHIEKAIERLEDIDKKVTRPARYMEKDEGHHHHHH”, the “soluble on expression in E. coli” value is reported as “not soluble”. For “MSLKVTMEFIANQLGITKNTVSLALRNMPGVSEKTRKEILRTAEKYGYIYKKSNSKNSKSNSRTGSICLMLSNDTKNSVGFFSFIQYGVESEGKRNGLNTILYCFDDNKEFQPPVCIRDGIVSGIITLGRISRKTVSSIISLNLPLVIVDDFFDDIKASYVLTDNLSGGYTATEYLIKSGHRSIGFFGDIFASPSFFDRYMGYLKAHVQYNLPVNSSFSIIDKNMAVLLHEGVDKVVDELKKIPQLPTAMFCCNDVEAIALYKAFSVMGISVPDDISIIGFDDIESSTSVSPELTTMHINKEAMGERAVKKLIEKMNGQESMDEKIVLPVTLIERQSVKREGHHHHHH”, the “soluble on expression in E. coli” value was “soluble”. With “MSLLDFSAHALPYASQRSPVHARRGMVATSQPQAAQVGLEILRRGGNAIDAAIATAAALTVVEPTGCGIGGDAFALVWTRGRLHGLDASGRAPGLLDRERVRAAGHERMPLYGWTPVTVPGCPAAWGELSRRFGKLPFEQLLRPAIELARDGFPVSPVIARLWQSGLDKFRAALPQRPELRAWFDEFLIDGRAPRAGEVFRQPGQADTLDELARSQCESFYRGELARAIVGHAECSGGYLRAEDLAGYQAKWVEPISLNYRGYDVWEIPPSGQGLIALMTLNILKGFEFGERDCARTWHRQLEAMKLAYVDGLHYISQPQSMRVSVEELLHEDYAASRRALIGERALDPSPGQPRPGGTVYLACGDEEGNLVSFIQSNYHGFGSGVVVPGTGIALQNRGAEFSLDPDHVNCLEPGKQTFHTIIPGFLSKDGVPLGPFGVMGAYMQPQGHVQMVMNLVDFGLNPQAALDAPRWQWLGGLRVGIEHAAPRALAAELAQRGHQVEIAYDSTSYGRGQIVLRDPASGVLCGGTEPRTDSQIAVWEGHHHHHH” the “soluble on expression in E. coli” value was “not soluble”. For “MSLLIKFESKSARVKGISFHPTRPWVLTSLHSGVIQLWDYRMCVLLEKFDEHDGPVRGICFHHDQPIFVSGGDDYKIKVWNYKQKRCIFTLLGHLDYIRTTFFHHKYPWIISASDDQTVRIWNWQSRNSIAILTGHNHYVMCAQFHPTEDLVASASLDQTVRVWDISGLRKKQMPGGGAPSRPTGGQQAELFGQPDAVVKHVLEGHDRGVNWVAFHHTNPILVSGSDDRQVKIWRYNETKAWELDSCRGHYNNVSSVIFHPNADLILSNSEDKSIRVWDMQKRTSLHVFRHENERFWVLAAHPSLNMFAAGHDNGMVVFKIQRERPAYCVSDNLVFYVKGQQIRKLDLTTNKDVALCKLRYPQPFMQPYYSLSFNPAEGTFLLTSRTHNKDLCAFELYKVASNSDGTTEAACVKSTGINALWVARNRFAVLDKAQNVSLRDLTNKELRKLENINTAVDDIFYAGTGMLLLRNDDGLQLFDVQQKIVTASVKVSKVRYVIWSKSMEFAALLSKHTLTLVNRKLEILCTQQESTRVKSGAWDDDSVFLYTTSNHIKYAINSGDCGIVRTLDLPLYILAIRGNVLYCLNRDATPVEVPIDNSDYKFKLALINKRIDEVVNMVRSANLVGQSIIGYLEKKGYPEIALHFVKDEKTRFGLAIECGNLEIALEAAKKLDEPAVWEALGETALLQGNHQIVEMSYQRTKNFEKLSFLYFVTGNTDKLVKMMKIAQARNDAHGHFQTALYTGDVEERVKVLRNCGQTSLAYLAAATHGYSAEAEELKAELESRQQPIPPVDPNARLLVPPPPVARLEENWPLLASARGTFDAQLLGLGGQSAPTNVGGVKPAAAAFAVMDDDDGDVGNEAWGDDEYLVGEDGELDVDEGEGPVDGDEEGGWDVDDDLALPDVTDDQGGDDDEEVVPNPAPAVSSEWPNVSRLAADHVAAGSFGTAIKLLHDTIGVVEAAPFKDVFVKAYAASRLSHRGWGGLGPAGPVSIHPVRNFQEDKNHLPVAAFKLSQLAKKLQKAYQMTTNGKFGDAVEKLREILLSVPLIVVSSKQEVAEAEQLITITREYLAALLLETYRKDLPKTNLEDAKRNAELAAYFTHFELQPMHRILTLRSAINTFFKMKQMKTCASLCKRLLELAPKPEVAAQIRKVLTAAEKDNTDAHQLTYDEHNPFVVCSRQFVPLYRGRPLCKCPYCGASYSEGLEGEVCNVCQVAEVGKNVLGLRISTLKS”, the “soluble on expression in E. coli” value was “not soluble”. With “MSLLKVRLCPAERPEAMLIDAHQHFWLMKDRAGQWPPPSLAAIYRDFLPTDLSPLLTAAGVSGTVLVQTMETAADTDFMLELAENTDFIKGVVGWVDMKSAEVTAEIARRAKHPAFKGVRPMLQGMEDVAWIDDAALNAAVEALVKHGLVFDALVLPPNLPHLLSFASKHPELPVVIDHGAKPLIATGHYRDWRRNMAALAARPNVHCKLSGLLTERGEQRPEAVRPYAETILELFGGDRVIFGSDWPVLRLAGDFQGWLDFCRDIVPAKDHAAVFGGNAIRFYSLTDREGHHHHHH” the “soluble on expression in E. coli” value was “not soluble”. For “MSLLLGVENGRITQLGDAELLAGELDISVKIHDYTGKIICPGFVDTHVHYPQLAIIGSYGESLLHWLENYAFDEEKKFNDADHSLKTANHFLDELLRCGTTTAQVFGTVHPESVEGFFTAAEHRDLRMICGKVLMDRNGPLGLLDTPETSYVDSKNLIERWHGRSRLRYAVSPRFAPTSTPDQLATARQLLREYPGTHLQTHLSEDQEEIKWVKSLFPHCKNYLDIYKRAGLLGKRSTFAHCLHLTEADWEMLEHEGCSVAFCPSSNLFLGSGLFDLPRPQFANVKVGIGTDVGAGTSLSMLQTIADAYKTQRLAGNDLSPLSGLYMATLGGAKSLDCDADIGNFKIGKEADFTVLDPESTPLMSYRMQNCKSLEERLAVIVLLGDDRAILATYANGRCVHDRDIDEESEGHHHHHH”, the “soluble on expression in E. coli” value was “soluble”. In the case of “MSLLRALPEVAEPEGVDFIEIATGRLGETIRVLHQLGFRLGGHHCSKQDYQVWTQGDVRIVVCDRGVTGAPTTISAMGFDTPDPEAAHARAELLRAQTIDRPHIEGEVDLKGVYAPDGVELFFAGPSPDGMPEWLPEFGVEKQEAGLIEAIDHVNFAQPWQHFDEAVLFYTALMALETVREDEFPSPIGLVRNQVMRSPNDAVRLLLSVAPEDGEQGDFLNAAYPEHIALATADIVAVAERARKRGLDFLPVPENYYDDVQARFDLPQEFLDTLKENHLLYDRDENGEFLHFYTRTLGTLFFEVVERRGGFAGWGETNAPVRLAAQYREVRDLERGIPEGHHHHHH”, the “soluble on expression in E. coli” value is reported as “soluble”. In the case of “MSLLREKAVPIRIPDQLPASDVLRNENIFVMSESRASTQEIRPLKVLLLNLMPKKIETETQFLRLLSNSPLQVDIELLRIDDRPSKNTPEEHLNTFYRQFELVKNRNFDGLIITGAPLGLVQFEDVAYWQHLQNIMAWAKAHVTSTLYICWAAQAGLKLLYNLPKRTREEKLSGVYYHDIHKPFHPLLRGFDDRFLAPHSRYADFDAEFLAEHTDLDILATSDVAGVYLAATKDKRNVFVTGHPEYDAYTLHGEYVRDLGEGLNPAIPVNYYPNDNPDNKPCASWRSHGHLLFANWLNYCVYQQTPYDLEKFSEANFTKDEEGHHHHHH”, the “soluble on expression in E. coli” value is reported as “soluble”. For “MSLLRFSAVSRHHRGASIDPMTFSEATTPDALTPDAHTPRLLTCDVLYTGMGGAQSPGGVVVVGETVAAAGHPDELRRQYPHAAEERAGAVIAPPPVNAHTHLDMSAYEFQALPYFQWIPEVVIRGRHLRGVAAAQAGADTLTRLGAGGVGDIVWAPEVMDALLAREDLSGTLYFEVLNPFPDKADEVFAAARTHLERWRRLERPGLRLGLSPHTPFTVSHRLMRLLSDYAAGEGLPLQIHVAEHPTELEMFRTGGGPLWDNRMPALYPHTLAEVIGREPGPDLTPVRYLDELGVLAARPTLVHMVNVTPDDIARVARAGCAVVTCPRSNHHLECGTFDWPAFAAAGVEVALGTDSVASGETLNVREEVTFARQLYPGLDPRVLVRAAVKGGQRVVGGRTPFLRRGETWQEGFRWELSRDLEGHHHHHH”, the “soluble on expression in E. coli” value was “soluble”. In the case of “MSLLRIIDTETCGLQGGIVEIASVDVIDGKIVNPMSHLVRPDRPISPQAMAIHRITEAMVADKPWIEDVIPHYYGSEWYVAHNASFDRRVLPEMPGEWICTMKLARRLWPGIKYSNMALYKTRKLNVQTPPGLHHHRALYDCYITAALLIDIMNTSGWTAEQMADITGRPSLMTTFTFGKYRGKAVSDVAERDPGYLRWLFNNLDSMSPELRLTLKHYLENTEGHHHHHH”, the “soluble on expression in E. coli” value is reported as “soluble”. For “MSLLRLHDGDLLFVTAARTGLSGAIDDATATQGAPSFDHVGLVAHDGRARVVLHADEEGSRQQPLADFIRQARAKQRQIFVYRLNAAQRAAIPDAIAQARRMLGKPYNLTYVQDDNSYYCSDFIERAFRAHQVFALQPMNFKNPQSGQMSAYWTEFYRSKGMDVPQGLPGTNPNDMARAPALQALGPLDEGHHHHHH”, the “soluble on expression in E. coli” value was “soluble”. With “MSLLTEQQRRELDWEKTDGLMPVIVQHAVSGEVLMLGYMNPEALDKTLESGKVTFFSRTKQRLWTKGETPGNFLNVVSIAPDCDNDTLLVLANPIGPTCHKGTSSCFGDTAHQWLFLYQLEQLLAERKSADPETSYTAKLYASGTKRIAQKVGEEGVETALAATVHDRFELTNEASDLMYHLLVLLQDQGLDLTPVIENLRKRHQEGHHHHHH” the “soluble on expression in E. coli” value was “soluble”. For “MSLLVIPAIDLQSGRCVRLKQGRFDQVTQFSVFPIERALHFAKLGAKRLHVVDLDGARSGKMQQLELICSMQKTGIPIQAGGGIRSIEQALECSNAGISQLVIGSLAITNPDLTIQIIEKIKPENIVLALDVRVDTKVPLLAINGWQNNSTSSLWEVVSYYENYGIKNILCTDIACDGMMNGPNFDLYQQAVEYFPQIAWQASGGVRHMQDITTLNSLGISAVILGLMLYQDHMNLEELLEGHHHHHH”, the “soluble on expression in E. coli” value was “soluble”.
